Source: patent US20250145706A1 (SINABIOSOLUTION, published 2025)
Substitutions are numbered along the chain they refer to.

B1: HC0-LC0 (antibody, human IgG1, kappa, V domains shown)
VH: QVQLQQSGPGLVQPSQSLSITCTVSGFSLTSYGIHWVRQSPGKGLEWLGVIWRGGGTDSNAAFMSRLSITKDNSKSQVFFKMNSLQADDTAIYYCARSRYDEEESMNYWGQGTSVTVSS
VL: QIVLTQSPASLSASVGETVTITCRASGNIHSYLAWYQQKQGKSPQLLVYNAKTLADGVPSRFSGSGSGTQYSLKINSLQPEDFGSYYCQHFWNTPPTFGAGTKLELKR
notes: Chimeric: mAb01-01 VH/VL on human IgG1 / human Ig kappa constant domains; also called chimeric antibody HC0-LC0; HC01 LC01
B2: HC7-LC6 (antibody, human IgG1, kappa, V domains shown)
VH: QVQLQESGPGLVKPSETLSLTCTVSGFSLTSYGIHWIRQSPGRGLEWIGVIWRGGGTDSNAAFMSRITISRDTSKTQVSLKLGSVTAADTAIYYCARSRYDEEESMNYWGQGTSVTVSS
VL: EIVLTQSPSSLSASVGDSVTITCRASGNIHSYLAWYQQKPGKAPKLLIYNAKTLADGVPSRFSGSGSGTQYTLTISSLQPEDFATYYCQHFWNTPPTFGAGTKLELKR
notes: Humanized IgG1 / kappa
B3: HC7-LC7 (antibody, human IgG1, kappa, V domains shown)
VH: B2 VH
VL: B2 VL with E1Q, V3Q, S10F, K45Q, Q70E
notes: Humanized IgG1 / kappa
B4: HC7-LC8 (antibody, human IgG1, kappa, V domains shown)
VH: B2 VH
VL: EIVLTQSPATLSLSPGERATLSCRASGNIHSYLAWYQQKPGQAPRLLIYNAKTLADGIPARFSGSGSGTDYTLTISSLEPEDFASYYCQHFWNTPPTFGAGTKLELKR
notes: Humanized IgG1 / kappa
B5: HC7-LC9 (antibody, human IgG1, kappa, V domains shown)
VH: B2 VH
VL: B4 VL with A9G, A60D, S77R, S85V
notes: Humanized IgG1 / kappa

Each binder was assayed against T1, soluble recombinant version of the IGLV3-21^R110-harboring B-cell receptor (monomeric human IgM, 170.5 kDa) (human) (assay: BLI (Octet), antibody captured on anti-human IgG Fc sensor, soluble BCR as analyte, 1:1 model).
T1 construct: Produced in 293-HEK cells by transient expression as monomeric human IgM; It was the analyte in solution in the BLI assay; also called soluble IGLV3-21^R110 B-cell receptor; soluble BCR-fragment
T1 sequence (heavy, as listed by the source limits assumed, chain 1 of 2): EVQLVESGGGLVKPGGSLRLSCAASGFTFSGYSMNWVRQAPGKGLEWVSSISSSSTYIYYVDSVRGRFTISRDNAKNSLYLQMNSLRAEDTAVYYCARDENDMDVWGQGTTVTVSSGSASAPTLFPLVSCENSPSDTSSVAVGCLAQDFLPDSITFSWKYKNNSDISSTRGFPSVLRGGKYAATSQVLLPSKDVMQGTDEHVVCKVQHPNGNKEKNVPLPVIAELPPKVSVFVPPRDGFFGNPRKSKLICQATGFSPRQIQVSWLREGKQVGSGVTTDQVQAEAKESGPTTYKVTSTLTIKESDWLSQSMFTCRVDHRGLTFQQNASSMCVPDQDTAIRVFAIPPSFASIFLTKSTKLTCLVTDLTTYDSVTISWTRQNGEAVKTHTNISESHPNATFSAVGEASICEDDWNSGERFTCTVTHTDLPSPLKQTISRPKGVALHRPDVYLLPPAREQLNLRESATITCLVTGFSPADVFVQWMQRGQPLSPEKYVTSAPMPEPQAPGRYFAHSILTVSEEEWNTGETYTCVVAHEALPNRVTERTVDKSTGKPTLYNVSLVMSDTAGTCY
T1 sequence (light, as listed by the source limits assumed, chain 2 of 2): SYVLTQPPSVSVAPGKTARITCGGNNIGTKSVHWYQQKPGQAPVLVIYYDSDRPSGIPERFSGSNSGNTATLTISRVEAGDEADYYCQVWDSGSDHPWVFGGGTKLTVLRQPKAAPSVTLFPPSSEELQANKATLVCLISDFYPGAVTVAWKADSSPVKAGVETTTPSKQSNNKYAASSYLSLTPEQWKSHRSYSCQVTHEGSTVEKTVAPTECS
Protocol: (§1) Kinetic assays were performed by first immobilizing the anti IGLV3-21^R110 antibodies onto biosensors through an indirect capturing reagent, anti-human IgG Fc antibody. Anti IGLV3-21^R110 antibodies were loaded at a concentration of […] to generate an anti IGLV3-21^R110 antibody capture level of between 0.30 and 0.34 nm. […] The anti IGLV3-21^R110 antibody capture biosensors were then submerged in wells containing the different concentrations of the soluble BCR-fragment for 900 seconds (association stage) followed by a dissociation step of 1200 seconds in running buffer. Steps were performed at a constant shake speed of 1000 rpm. All reagents were used as described by the manufacturer. Sensorgrams were generated after double reference correction (buffer and blank sensors) to compensate for both the natural dissociation of the capture anti IGLV3-21^R110 antibody and also non-specific binding of the soluble BCR-fragment to the sensor surface. […] (KD) were calculated based on the ratio of association (kₐ) and dissociation rate (kd) constants, obtained by fitting sensorgrams with a first order 1:1 binding model using the Fortebio Data Analysis software (Satorius).
B1 gave a Kd of 0.121 nM.
For B2, the Kd was 0.175 nM.
Work on B3 yielded a Kd of 0.269 nM.
With B4 the Kd was 0.249 nM.
Work on B5 yielded a Kd of 0.313 nM.

These binders were tested against T1, soluble recombinant version of the … (assay: BLI (Octet), reference HC0-LC0).
Protocol: as §1
For the KD values of all humanized antibodies, see Table 3.
With B2 the “fold of the dissociation constant against chimeric antibody HC0-LC0” value was no more than 2 fold.
